Consider one substance from patent US20070015228A1.

In assay [1] the target is human CD20 (human) (UniProt P11836). The assay can be described thus: cell ELISA on CD20-transfected CHO clone 1H6, suspension format, 300,000 cells/well.
Assay [2] shares this target. The assay can be described thus: Scatchard analysis, iodinated RITUXAN with unlabeled RITUXAN on adherent CHO clone 4H10 cells expressing human CD20 (n=3).
Assay [3] has the same target. The assay can be described thus: Scatchard analysis, iodinated RITUXAN with unlabeled RITUXAN on WIL2 cells in suspension (n=3).
The target is the same in assay [4]. The assay can be described thus: cell ELISA on CD20-transfected CHO clone C12M, suspension format, 300,000 cells/well.
Assay [5] shares this target. The assay can be described thus: Scatchard analysis, iodinated RITUXAN with unlabeled RITUXAN on adherent CHO clone C12M cells expressing human CD20 (n=3).
Assay [6] has the same target. The assay can be described thus: Scatchard analysis, iodinated RITUXAN with unlabeled RITUXAN on adherent CHO clone 6D7 cells expressing human CD20 (n=3).
The target is the same in assay [7]. The assay can be described thus: Scatchard analysis, iodinated RITUXAN with unlabeled RITUXAN on CHO clone 2H3 cells in suspension (n=3).
For assay [8] the target is unchanged. The assay can be described thus: cell ELISA on CD20-transfected CHO clone 2H3, suspension format, 300,000 cells/well. For orientation: In an ELISA, binding on a coated surface is turned into a signal by an enzyme label.

Sequence of human CD20 (human) (P11836 whole entry): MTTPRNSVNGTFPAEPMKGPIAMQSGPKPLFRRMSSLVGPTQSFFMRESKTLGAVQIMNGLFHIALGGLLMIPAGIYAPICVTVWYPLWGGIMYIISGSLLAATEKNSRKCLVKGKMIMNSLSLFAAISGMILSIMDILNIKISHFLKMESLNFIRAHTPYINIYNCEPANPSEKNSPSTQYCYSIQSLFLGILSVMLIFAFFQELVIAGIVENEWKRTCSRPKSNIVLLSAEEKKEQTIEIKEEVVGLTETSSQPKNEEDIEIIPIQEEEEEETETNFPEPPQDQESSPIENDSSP

In general, EC50 (read off the curve) refers to the concentration that produces a half-maximal response. As usually defined, the Kd is the concentration at which binding is half-saturated. RITUXAN® (rituximab) (antibody): the EC50 (read off the curve) in assay [1], in assay [4] and in assay [8] was 0.2 µg/mL in each case. The Kd in assay [2] stood at 5.5 nM; in assay [3], 3.91 nM; in assay [5] it was 13.7 nM; in assay [6] it was 5.97 nM; in assay [7], 8.57 nM.
